Article PMC11648244, “Substrate specificity and kinetic mechanism of 3β-hydroxy- Δ ^5-C27-steroid oxidoreductase” (The Journal of Biological Chemistry, 2024)
Where a chain is given by its changes, count along the chain named. Names may count otherwise.

What was measured:
[1] = molecular target: 3β-HSD dehydrogenase type II (HSD3B2) (UniProt P26439); experiment: cross-linking; chemical crosslinking in solution, bands on a gel
[2] = molecular target: T1, 3β-hydroxy-Δ^5-C27-steroid oxidoreductase (HSD3B7) (Homo sapiens, UniProt Q9H2F3); experiment: FRET from intrinsic tryptophan fluorescence to NADH, Morrison fit; type: binding
T1 construct: WT, N-terminal 6x histidine tag
T1 sequence (Q9H2F3 1-369): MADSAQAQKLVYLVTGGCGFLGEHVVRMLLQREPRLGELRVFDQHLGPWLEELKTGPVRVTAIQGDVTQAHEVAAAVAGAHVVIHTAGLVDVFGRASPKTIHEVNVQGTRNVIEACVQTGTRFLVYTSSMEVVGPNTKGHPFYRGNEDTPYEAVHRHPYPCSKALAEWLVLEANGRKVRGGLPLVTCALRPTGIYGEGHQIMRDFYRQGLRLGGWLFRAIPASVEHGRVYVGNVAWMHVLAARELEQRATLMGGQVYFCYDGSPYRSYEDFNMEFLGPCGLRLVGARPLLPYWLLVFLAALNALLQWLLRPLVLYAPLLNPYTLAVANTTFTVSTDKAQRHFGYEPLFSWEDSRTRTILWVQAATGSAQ

[3] = molecular target: 3β-HSD dehydrogenase type I (HSD3B1) (UniProt P14060); experiment: cross-linking; chemical crosslinking in solution, bands on a gel
purified protein = substrate: NC(=O)c1ccc[n+]([C@@H]2O[C@H](COP(=O)([O-])OP(=O)(O)OC[C@H]3O[C@@H](n4cnc5c(N)ncnc54)[C@H](O)[C@@H]3O)[C@@H](O)[C@H]2O)c1; experiment: purified protein; type: biochemical, Homo sapiens; conditions: varied: cofactor
[4] = substrate: C[C@H](CCCC(C)(C)O)[C@H]1CC[C@H]2[C@@H]3[C@H](O)C=C4C[C@@H](O)CC[C@]4(C)[C@H]3CC[C@]12C; experiment: steady-state kinetics of purified enzyme (NAD(P)H-Glo), Km; type: biochemical, Homo sapiens; set-up: kcat / Vmax: unit not given here; conditions: NAD+ predicted oxysterol pocket; F93, F205, I201 (docking)
[5] = substrate: C[C@@H](CO)CCC[C@@H](C)[C@H]1CC[C@H]2[C@@H]3[C@H](O)C=C4C[C@@H](O)CC[C@]4(C)[C@H]3CC[C@]12C; experiment: as above; type: biochemical, Homo sapiens; set-up: kcat / Vmax: unit not given here; conditions: NAD+ predicted oxysterol pocket; F93, F205, I201, Q208 (docking)
[6] = substrate: CC(C)CCC[C@@H](C)[C@H]1CC[C@H]2[C@@H]3[C@H](O)C=C4C[C@@H](O)CC[C@]4(C)[C@H]3CC[C@]12C; experiment: as above; type: biochemical, Homo sapiens; set-up: kcat / Vmax: unit not given here; conditions: NAD+ predicted oxysterol pocket; F93, F205, I201; near Y-S-N-K tetrad (docking)
[7] = substrate: CC(CCCC(C)C1CCC2C3C(O)C=C4C[C@@H](O)CC[C@]4(C)C3CC[C@]12C)C(=O)O; experiment: as above; type: biochemical, Homo sapiens; set-up: kcat / Vmax: unit not given here; conditions: NAD+ predicted oxysterol pocket; F93, F205, I201 (docking)
[8] = substrate: CC(C)CCC[C@@H](C)[C@H]1CC[C@H]2[C@@H]3[C@H](O)C=C4C[C@@H](O)CC[C@]4(C)[C@H]3CC[C@]12C; experiment: steady-state kinetics of purified mutant, Km; type: biochemical, Homo sapiens; conditions: NAD+ predicted oxysterol binding pocket
[9] = substrate: CC(C)CCC[C@@H](C)[C@H]1CC[C@H]2[C@@H]3[C@H](O)C=C4C[C@@H](O)CC[C@]4(C)[C@H]3CC[C@]12C; experiment: steady-state kinetics of purified mutant, apparent Km; type: biochemical, Homo sapiens; conditions: NAD+ predicted oxysterol binding pocket
[10] = conserved Rossmann fold domain (docking), binds first

## 3β-HSD dehydrogenase type II (HSD3B2) (from UniProt P26439 1-372) (enzyme)
[1]
  stoichiometry N: 2

## NC(=O)C1=CN([C@@H]2O[C@H](COP(=O)(O)OP(=O)(O)OC[C@H]3O[C@@H](n4cnc5c(N)ncnc54)[C@H](O)[C@@H]3O)[C@@H](O)[C@H]2O)C=CC1 [NADH]
[2]
  Kd: 0.78 µM

## 3β-HSD dehydrogenase type I (HSD3B1) (from UniProt P14060 1-373) (enzyme)
[3]
  stoichiometry N: 2

B1: 3β-hydroxy-Δ^5-C27-steroid oxidoreductase (HSD3B7) (Homo sapiens) (protein)
chain: T1 sequence (Q9H2F3 1-369)
notes: WT, N-terminal 6x histidine tag
Purified protein; [10]
  Km: 45.8 µM
  Vmax: 587.2 (550.0, 628.7)
  kcat: 24.7 (23.1, 26.4)
  kcat/Km: 9000 ± 3200 M⁻¹ s⁻¹
[4]
  Km: 18.3 µM
  Vmax: 901.8 (785.3, 1044)
  kcat: 37.9 (33.0, 43.9)
  kcat/Km: 35000 ± 12000 M⁻¹ s⁻¹
[5]
  Km: 3.8 µM
  Vmax: 532.0 (493.0, 573.4)
  kcat: 22.4 (20.7, 24.1)
  kcat/Km: 98000 ± 22000 M⁻¹ s⁻¹
[6]
  Km: 17.4 µM
  Vmax: 735 (669.5, 812.3)
  kcat: 30.9 (28.1, 34.1)
  kcat/Km: 30000 ± 10000 M⁻¹ s⁻¹
[7]
  Km: 8.6 µM
  Vmax: 551.8 (513.5, 593.2)
  kcat: 23.2 (21.6, 24.9)
  kcat/Km: 45000 ± 17000 M⁻¹ s⁻¹

B2: 3β-hydroxy-Δ^5-C27-steroid oxidoreductase (HSD3B7) (Homo sapiens; F205A) (protein)
chain: T1 sequence (Q9H2F3 1-369) with F205A
notes: F205A mutant
[8]
  Km: 11.2 µM
  Vmax: 76.6 (62.5, 96.0)
  kcat: 1.5 (1.3, 1.9)
  kcat/Km: 2200 ± 700 M⁻¹ s⁻¹
Purified protein
  Km: 93.8 µM
  Vmax: 288.2 (255.0, 330.6)
  kcat: 5.8 (5.1, 6.6)
  kcat/Km: 1000 ± 400 M⁻¹ s⁻¹

B3: 3β-hydroxy-Δ^5-C27-steroid oxidoreductase (HSD3B7) (Homo sapiens; F93A) (protein)
chain: T1 sequence (Q9H2F3 1-369) with F93A
notes: F93A mutant
[9]
  Km: 58.2 µM
  Vmax: 286.5 (224.2, 405.0)
  kcat: 14.3 (11.2, 20.3)
  kcat/Km: 4100 ± 2000 M⁻¹ s⁻¹
